Measured values from patent publication US10105442B2, “Treatment of diabetes type 1 using GLP-1 and anti-IL-21” (Novo Nordisk A/S, priority 2014, dated 2018).

Assays:
[1] = tested on: pancreatic tissue (islets, insulitis) of NOD mice; experiment: Histological examination of pancreatic tissue of NOD mice (H&E, CD8/CD4 and insulin staining); type: in vivo, mouse
Protocol: Histological examination: The histological analyses were performed on pancreatic tissue from a subset of mice from each group. Sections were stained with Hematoxylin and eosin (H&E) to assess insulitis and immunofluorescent staining with either CD8 and insulin or CD4 and insulin to assess insulitis and also characterize cell types within infiltrates.

[2] = tested on: recent-onset NOD mouse model; experiment: Determination of blood glucose effect in recent-onset NOD model (Assay V; Examples 1-3); type: in vivo
Protocol: Assay (V): Determination of Blood Glucose Effect in NOD Model
The purpose of this experiment was to determine the effect of administration of a GLP-1 agonist, such as the GLP-1 peptide, and/or an inhibitor of IL-21 function on blood glucose.
(§1) The recent-onset NOD mouse model was used. Mice were screened twice weekly and diabetes onset was defined as 2 consecutive blood glucose values of >250 mg/dL. Mice were enrolled into the experiment starting at 11 weeks of age and continued to be enrolled through 26 weeks of age. Dosing was weight based.
(§2) Blood glucose was measured by using a blood glucose meter (Bayer Contour USB) with the corresponding blood glucose strips. Mice with a blood glucose level>250 mg/dL on two consecutive days were considered diabetic. […] If the measurement was again >250 mg/dL, the animal was recorded as diabetic, enrolled into a treatment group, and was monitored further until it reached two consecutive readings of >600 mg/dL. At this time the mouse was sacrificed. Mice were also sacrificed before they reached a blood glucose value of >600 mg/dL if their overall condition was deteriorating, as determined by weight and/or overall appearance.
The mouse surrogate anti-IL-21 antibody was prepared by immunization of 6 to 8 week old BALB/c mice by s.c. injection with recombinant mouse IL-21 in a mixture of adjuvants. […] (SEQ ID No 13).
(§3) Anti-IL-21 was administered i.p. five times twice weekly starting immediately after inclusion of mice, i.e. from Day 0. […] Mouse surrogate anti-IL-21 is an mIgG1/kappa isotype with the VL amino acid sequence: […] […] […] (SEQ ID NO:26), and the VH amino acid sequence: […] […] […] (SEQ ID NO:27). […] Before use, anti-IL-21 was diluted in buffer (20 mM phosphate, 150 mM NaCl, pH=7.4). Aliquots of anti-IL-21 for injection into the animals were only thawed once.
Enrolment of mice of as described in Example 1 was continued adding 9, 8, 8 and 8 subjects to the treatment groups 1 to 4, respectively.

[3] = tested on: recent-onset NOD mouse model; experiment: Liraglutide in combination with Anti-IL-21 in the NOD model, confirmation study (Example 4); type: in vivo
Protocol: as §1, §2, §3

mIL-21 = target: T1, mIL-21 (Mus musculus, UniProt Q9ES17); experiment: Inhibition of IL-21-driven B cell proliferation (Assay IV); type: cell-based; settings: mouse B cells stimulated with anti-IgM, anti-CD40 and rmIL-21, 72 h, 3H-thymidine incorporation
T1 construct: purchased
Protocol: Assay (IV): Inhibition of IL-21-Driven B Cell Proliferation.
As a functionality test, anti-mIL-21 is tested for its ability to neutralize mIL-21-driven B cell proliferation. Equivalent assays may be performed for testing of anti-hIL-21 antibodies, such as Example 10 of WO2013/164021 that utilizes PBMC's isolated from healthy human volunteers. Further information on ability to inhibit B-cell maturation may be obtained as described in Example 6 and 12 of WO2012/098113.
Mouse B cells are purified from spleens harvested from 6-8 weeks old wild-type C57BL/6 mice. Single cell splenocytes are prepared by forcing the organ through a 70 μm cell strainer into PBS. B cells were purified by anti-B220 positive selection by magnetic beads, using magnetic beads and an AutoMACS cell separator (Miltenyi Biotec) according to manufacturer's protocol.
Cells are stimulated in vitro with: a) soluble anti-IgM (1 μg/mL), b) soluble anti-CD40 (1 μg/mL) and c) mIL-21 (25, 50, 100 ng/mL). 10^5 purified B cells were added per well in a 96-well-plate and stimulated for 72 h at 37° C. with soluble IgM (1 μg/mL), soluble anti-CD40 IgM (1 μg/mL) and rmIL-21 (100 ng/mL) in the presence of an anti-IL-21 antibody or an isotype control antibody. For the last 18 h of incubation 3H-thymidine is added to each well and thymidine-incorporation (proliferation) was measured on a Top Counter liquid scintilator (Perkin Elmer)

B1: Anti-IL-21: Mouse surrogate anti-IL-21 antibody, mIgG1/kappa isotype, VL SEQ ID NO:26 and VH SEQ ID NO:27, raised against recombinant mouse IL-21 (antibody, V domains shown)
VH: MNFGPSLIFLVLILKGVQCEVQLVESGGGLVKPGGSLKLSCAASGFTFNRYSMSWVRQSPEKRLEWVAEISVGGSYTQYVDIVTGRFTISRDNAKNTLYLEMSSLRSEDTAMYYCARLYYSGSGDSYYYAMDYWGQGTSVTVSS
VL: MDFQVQIFSFLLISASVILSRGQTVLIQSPAIMSASPGEKVTMTCSASSSVSYMHWYQQKSGTSPKRWIYDTSKLASGVPARFSGSGSGTSYSLTISSMEAEDAATYYCQQWNSNPPTFGGGTKLEMK
B1 was tested, and the “Cellular infiltration of pancreas (in words)” value ([1]; subset of mice from each group) was “decreased extent of infiltration”, the “Insulitis (in words)” value ([1]; surviving mice) was “reduced” and the “Effect on hyperglycemia (in words)” value ([2]; Example 1, NOD mice, 70 days) was “able to reverse hyperglycemia in some of the mice”. For the same molecule, the “Mice in which diabetes was reversed (BGV lowered to below 250 mg/dL)” value ([2]; Examples 1 and 2 compiled, FIG. 5A, 35 days period) was “half of the mice”, the “Number of mice surviving / remaining viable throughout the study period of 70 days (in words)” value ([2]; Examples 1 and 2 compiled, FIGS. 3 and 4) was “substantial number” and the “Average blood glucose +/− SD” value ([2]; Table 1, Example 1 mice (N = 10 per group at onset), day 0 post diabetes onset) was 351 ± 56 mg/dL. For the same molecule, the “Average blood glucose +/− SD” value ([2]; Table 1, Example 1 mice, day 4 post diabetes onset) was 370 ± 73 mg/dL, the “Average blood glucose +/− SD” value ([2]; Table 1, Example 1 mice, day 7 post diabetes onset) was 404 ± 93 mg/dL and the “Average blood glucose +/− SD” value ([2]; Table 1, Example 1 mice, day 11 post diabetes onset) was 405 ± 160 mg/dL. For the same molecule, the “Average blood glucose +/− SD” value ([2]; Table 1, Example 1 mice, day 14 post diabetes onset) was 379 +/− 139 (n = 8) mg/dL, the “Average blood glucose +/− SD” value ([2]; Table 1, Example 1 mice, day 18 post diabetes onset) was 351 +/− 178 (n = 7) mg/dL and the “Average blood glucose +/− SD” value ([2]; Table 1, Example 1 mice, day 21 post diabetes onset) was 285 +/− 151 (n = 6) mg/dL. The “Average blood glucose +/− SD” value ([2]; Table 1, Example 1 mice, day 25 post diabetes onset) was 279 +/− 169 (n = 6) mg/dL, the “Average blood glucose +/− SD” value ([2]; Table 1, Example 1 mice, day 28 post diabetes onset) was 204 +/− 95 (n = 5) mg/dL and the “Average blood glucose +/− SD” value ([2]; Table 1, Example 1 mice, day 32 post diabetes onset) was 221 +/− 101 (n = 5) mg/dL. The “Average blood glucose +/− SD” value ([2]; Table 1, Example 1 mice, day 35 post diabetes onset) was 205 +/− 116 (n = 5) mg/dL, the “Average blood glucose +/− SD” value ([2]; Table 1, Example 1 mice, day 39 post diabetes onset (liraglutide withdrawn after day 35)) was 224 +/− 140 (n = 5) mg/dL and the “Average blood glucose +/− SD” value ([2]; Table 1, Example 1 mice, day 42 post diabetes onset (liraglutide withdrawn after day 35)) was 215 +/− 112 (n = 5) mg/dL. For the same molecule, the “Average blood glucose +/− SD” value ([2]; Table 1, Example 1 mice, day 46 post diabetes onset (liraglutide withdrawn after day 35)) was 201 +/− 122 (n = 5) mg/dL, the “Average blood glucose +/− SD” value ([2]; Table 1, Example 1 mice, day 49 post diabetes onset (liraglutide withdrawn after day 35)) was 217 +/− 140 (n = 5) mg/dL and the “Average blood glucose +/− SD” value ([2]; Table 1, Example 1 mice, day 53 post diabetes onset (liraglutide withdrawn after day 35)) was 229 +/− 186 (n = 5) mg/dL. For the same molecule, the “Average blood glucose +/− SD” value ([2]; Table 1, Example 1 mice, day 56 post diabetes onset (liraglutide withdrawn after day 35)) was 128 +/− 10 (n = 4) mg/dL, the “Average blood glucose +/− SD” value ([2]; Table 1, Example 1 mice, day 60 post diabetes onset (liraglutide withdrawn after day 35)) was 174 +/− 59 (n = 4) mg/dL and the “Average blood glucose +/− SD” value ([2]; Table 1, Example 1 mice, day 63 post diabetes onset (liraglutide withdrawn after day 35)) was 156 +/− 30 (n = 4) mg/dL. The “Average blood glucose +/− SD” value ([2]; Table 1, Example 1 mice, day 67 post diabetes onset (liraglutide withdrawn after day 35)) was 138 +/− 16 (n = 4) mg/dL, the “Average blood glucose +/− SD” value ([2]; Table 1, Example 1 mice, day 70 post diabetes onset (liraglutide withdrawn after day 35)) was 153 +/− 30 (n = 4) mg/dL and the “Average blood glucose +/− SD” value ([2]; Table 2, additional mice (Example 2), day 0 post diabetes onset) was 353 +/− 59 (n = 8) mg/dL. The “Average blood glucose +/− SD” value ([2]; Table 2, additional mice (Example 2), day 4 post diabetes onset) was 326 +/− 104 (n = 8) mg/dL, the “Average blood glucose +/− SD” value ([2]; Table 2, additional mice (Example 2), day 7 post diabetes onset) was 375 +/− 103 (n = 8) mg/dL and the “Average blood glucose +/− SD” value ([2]; Table 2, additional mice (Example 2), day 11 post diabetes onset) was 361 +/− 125 (n = 8) mg/dL. For the same molecule, the “Average blood glucose +/− SD” value ([2]; Table 2, additional mice (Example 2), day 14 post diabetes onset) was 338 +/− 153 (n = 8) mg/dL, the “Average blood glucose +/− SD” value ([2]; Table 2, additional mice (Example 2), day 18 post diabetes onset) was 336 +/− 183 (n = 8) mg/dL and the “Average blood glucose +/− SD” value ([2]; Table 2, additional mice (Example 2), day 21 post diabetes onset) was 248 +/− 153 (n = 6) mg/dL. The “Average blood glucose +/− SD” value ([2]; Table 2, additional mice (Example 2), day 28 post diabetes onset) was 219 +/− 162 (n = 6) mg/dL, the “Average blood glucose +/− SD” value ([2]; Table 2, additional mice (Example 2), day 35 post diabetes onset) was 147 +/− 15 (n = 5) mg/dL and the “Average blood glucose +/− SD” value ([2]; Table 2, additional mice (Example 2), day 42 post diabetes onset (liraglutide withdrawn after day 35)) was 264 +/− 121 (n = 2^#) mg/dL. For the same molecule, the “Average blood glucose +/− SD” value ([2]; Table 2, additional mice (Example 2), day 49 post diabetes onset (liraglutide withdrawn after day 35)) was 118 +/− 17 (n = 2) mg/dL, the “Average blood glucose +/− SD” value ([2]; Table 2, additional mice (Example 2), day 56 post diabetes onset (liraglutide withdrawn after day 35)) was 286 +/− 107 (n = 2) mg/dL and the “Average blood glucose +/− SD” value ([2]; Table 2, additional mice (Example 2), day 63 post diabetes onset (liraglutide withdrawn after day 35)) was 314 +/− 157 (n = 2) mg/dL. For the same molecule, the “Average blood glucose +/− SD” value ([2]; Table 2, additional mice (Example 2), day 70 post diabetes onset (liraglutide withdrawn after day 35)) was 400 +/− 108 (n = 2) mg/dL, the “Average blood glucose +/− SD” value ([2]; Table 3, all mice (Examples 1 and 2 compiled), day 0 post diabetes onset) was 352 +/− 57 (n = 18) mg/dL and the “Average blood glucose +/− SD” value ([2]; Table 3, all mice (Examples 1 and 2 compiled), day 4 post diabetes onset) was 351 +/− 91 (n = 18) mg/dL. For the same molecule, the “Average blood glucose +/− SD” value ([2]; Table 3, all mice (Examples 1 and 2 compiled), day 7 post diabetes onset) was 391 +/− 99 (n = 18) mg/dL, the “Average blood glucose +/− SD” value ([2]; Table 3, all mice (Examples 1 and 2 compiled), day 11 post diabetes onset) was 385 +/− 147 (n = 18) mg/dL and the “Average blood glucose +/− SD” value ([2]; Table 3, all mice (Examples 1 and 2 compiled), day 14 post diabetes onset) was 358 +/− 148 (n = 16) mg/dL. The “Average blood glucose +/− SD” value ([2]; Table 3, all mice (Examples 1 and 2 compiled), day 18 post diabetes onset) was 343 +/− 181 (n = 15) mg/dL, the “Average blood glucose +/− SD” value ([2]; Table 3, all mice (Examples 1 and 2 compiled), day 21 post diabetes onset) was 267 +/− 153 (n = 12) mg/dL and the “Average blood glucose +/− SD” value ([2]; Table 3, all mice (Examples 1 and 2 compiled), day 28 post diabetes onset) was 212 +/− 136 (n = 11) mg/dL. The “Average blood glucose +/− SD” value ([2]; Table 3, all mice (Examples 1 and 2 compiled), day 35 post diabetes onset) was 176 +/− 88 (n = 10) mg/dL, the “Average blood glucose +/− SD” value ([2]; Table 3, all mice (Examples 1 and 2 compiled), day 42 post diabetes onset (liraglutide withdrawn after day 35)) was 229 +/− 117 (n = 7^#) mg/dL and the “Average blood glucose +/− SD” value ([2]; Table 3, all mice (Examples 1 and 2 compiled), day 49 post diabetes onset (liraglutide withdrawn after day 35)) was 189 +/− 127 (n = 7) mg/dL. The “Average blood glucose +/− SD” value ([2]; Table 3, all mice (Examples 1 and 2 compiled), day 56 post diabetes onset (liraglutide withdrawn after day 35)) was 181 +/− 97 (n = 6) mg/dL, the “Average blood glucose +/− SD” value ([2]; Table 3, all mice (Examples 1 and 2 compiled), day 63 post diabetes onset (liraglutide withdrawn after day 35)) was 209 +/− 119 (n = 6) mg/dL and the “Average blood glucose +/− SD” value ([2]; Table 3, all mice (Examples 1 and 2 compiled), day 70 post diabetes onset (liraglutide withdrawn after day 35)) was 236 +/− 134 (n = 6) mg/dL. For the same molecule, the “Survival through 70 days post onset of hyperglycaemia” value ([3]; Example 4) was 75%, the “Mice with established hyperglycaemia cured / reversed” value ([3]; Example 4, first 35 days post disease onset) was 75% and the “Inhibition of mIL-21-driven B-cell proliferation (in words)” value (mIL-21) was “capable of inhibiting B-cell proliferation in a concentration dependent manner”.
